The target in one test is T1, Shroom3 (Mus musculus, UniProt Q9QXN0).
T1 construct: SD2 domain (aa 1,563–1,986)
T1 sequence (Q9QXN0 1563-1986): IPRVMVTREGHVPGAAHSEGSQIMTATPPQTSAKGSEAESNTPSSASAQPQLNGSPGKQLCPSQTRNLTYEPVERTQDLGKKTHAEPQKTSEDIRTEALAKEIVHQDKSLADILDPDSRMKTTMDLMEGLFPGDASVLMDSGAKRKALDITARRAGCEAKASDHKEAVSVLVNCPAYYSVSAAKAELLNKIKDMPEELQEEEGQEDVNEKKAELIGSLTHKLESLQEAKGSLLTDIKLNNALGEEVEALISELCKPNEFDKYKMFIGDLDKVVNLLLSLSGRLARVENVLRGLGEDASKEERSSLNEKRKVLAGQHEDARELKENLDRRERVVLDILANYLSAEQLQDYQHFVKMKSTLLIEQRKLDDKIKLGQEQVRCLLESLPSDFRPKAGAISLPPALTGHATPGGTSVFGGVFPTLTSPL
T1 sequence (P70336 698-957 partner): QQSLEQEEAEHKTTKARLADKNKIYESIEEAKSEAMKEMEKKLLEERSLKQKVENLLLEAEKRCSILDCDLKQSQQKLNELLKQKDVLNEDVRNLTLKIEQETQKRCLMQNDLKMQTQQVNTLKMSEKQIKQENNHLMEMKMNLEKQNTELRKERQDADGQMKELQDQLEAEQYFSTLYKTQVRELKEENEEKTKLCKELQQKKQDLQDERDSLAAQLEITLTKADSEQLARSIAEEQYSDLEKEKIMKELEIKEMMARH
In words: ELISA of purified SD2 / biotin-R2-C1 interaction; wash-out irreversibility, DTT block and Cys-to-Ala mutagenesis. The class given is binding. In general terms: In an ELISA, binding on a coated surface is turned into a signal by an enzyme label.

The target of test [1] is T2, Shroom3 SD2 domain (aa 1,563–1,986), GST removed (mouse, UniProt Q9QXN0 1563-1986).
T2 construct: Shroom3 SD2 domain, mouse, aa 1,563-1,986; Expressed as GST-SD2 from pGST-SD2; also called WT SD2; SD2 wild type; source: E. coli, purified (glutathione agarose; GST removed with TEV protease)
T2 sequence (looked up): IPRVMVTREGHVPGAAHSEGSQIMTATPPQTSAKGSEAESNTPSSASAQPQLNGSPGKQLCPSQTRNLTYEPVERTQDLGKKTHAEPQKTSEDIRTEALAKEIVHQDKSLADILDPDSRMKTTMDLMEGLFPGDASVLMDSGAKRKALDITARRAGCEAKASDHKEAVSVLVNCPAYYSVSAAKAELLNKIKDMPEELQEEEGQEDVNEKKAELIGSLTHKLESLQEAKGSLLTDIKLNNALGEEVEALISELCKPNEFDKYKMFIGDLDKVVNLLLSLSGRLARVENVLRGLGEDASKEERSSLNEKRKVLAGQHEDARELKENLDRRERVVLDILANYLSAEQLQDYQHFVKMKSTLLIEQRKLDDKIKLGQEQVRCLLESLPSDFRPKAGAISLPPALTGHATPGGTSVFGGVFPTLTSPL
The test is described as follows: ELISA; 0.5 µg SD2 immobilised on 96-well Immulon 2B high binding plates; Biotin-R2C1 0 to 1,778 nM (11 points) for 1 h at 25°C in TBS-1 (20 mM Tris HCl, 150 mM KCl, 0.5% Triton X-100, pH 7.9) with 0.5% BSA; NeutrAvidin-HRP; apparent Kd, hyperbolic fit. Conditions: both partners purified.

The next test addresses T3, SD2 Cys379Ala (ELISA) (mouse, UniProt Q9QXN0 1563-1986, Cys379Ala (SD2 numbering; mouse Shroom3 Cys1941)).
T3 construct: Shroom3 SD2 domain, mouse, aa 1,563-1,986; SD2 Cys379 corresponds to mouse Shroom3 Cys1941 (AAF13269)
T3 sequence (looked up): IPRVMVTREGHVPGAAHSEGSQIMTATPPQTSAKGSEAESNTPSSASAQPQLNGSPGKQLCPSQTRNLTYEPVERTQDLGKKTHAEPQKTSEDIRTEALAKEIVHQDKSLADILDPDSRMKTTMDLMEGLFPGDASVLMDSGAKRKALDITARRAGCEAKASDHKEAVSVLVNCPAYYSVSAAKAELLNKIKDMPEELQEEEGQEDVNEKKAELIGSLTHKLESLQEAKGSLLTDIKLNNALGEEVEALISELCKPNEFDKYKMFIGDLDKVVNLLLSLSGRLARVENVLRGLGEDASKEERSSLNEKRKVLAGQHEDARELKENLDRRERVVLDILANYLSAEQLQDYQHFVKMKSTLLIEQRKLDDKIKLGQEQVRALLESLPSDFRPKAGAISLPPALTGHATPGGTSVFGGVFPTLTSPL
In words: ELISA; 150 ng SD2 (wild type or mutant) immobilised on 384-well high-binding plates; CCG-17444 dilutions 30 min at 25°C, then 10 ng biotin-R2C1 (1.5 ng in Figure 4) 1 h at 25°C; buffer A (20 mM Tris HCl, 150 mM KCl, 0.05% Triton X-100, 0.5% BSA, pH 7.9); NeutrAvidin-HRP; also with 1 mM DTT. Conditions: both partners purified.

A further test deals with T4, SD2 Cys254Ala (ELISA) (mouse, UniProt Q9QXN0 1563-1986, Cys254Ala (SD2 numbering; Cys 1816 in full length mouse Shroom3)).
T4 construct: Shroom3 SD2 domain, mouse, aa 1,563-1,986; also called Cys254Ala mutant
T4 sequence (looked up): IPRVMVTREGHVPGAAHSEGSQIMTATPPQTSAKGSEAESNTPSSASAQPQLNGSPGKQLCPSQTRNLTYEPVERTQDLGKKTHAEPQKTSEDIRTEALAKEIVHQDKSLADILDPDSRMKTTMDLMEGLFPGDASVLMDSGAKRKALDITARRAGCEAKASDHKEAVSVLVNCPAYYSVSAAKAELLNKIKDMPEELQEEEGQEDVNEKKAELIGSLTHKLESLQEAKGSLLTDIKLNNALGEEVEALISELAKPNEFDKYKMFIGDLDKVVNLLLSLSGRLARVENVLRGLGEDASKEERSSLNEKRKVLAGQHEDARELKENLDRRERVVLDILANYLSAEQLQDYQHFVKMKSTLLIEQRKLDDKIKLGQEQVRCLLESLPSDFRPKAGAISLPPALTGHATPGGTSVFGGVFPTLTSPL
The test is described as above. Conditions: both partners purified.

Test [2] concerns the target T5, SD2 Cys254Ala Cys379Ala (ELISA) (mouse, UniProt Q9QXN0 1563-1986, Cys254Ala (SD2 numbering; Cys 1816 in full length mouse Shroom3) | Cys379Ala …).
T5 construct: Shroom3 SD2 domain, mouse, aa 1,563-1,986; also called double mutant SD2 Cys254Ala Cys379Ala; double Cys to Ala mutant
T5 sequence (looked up): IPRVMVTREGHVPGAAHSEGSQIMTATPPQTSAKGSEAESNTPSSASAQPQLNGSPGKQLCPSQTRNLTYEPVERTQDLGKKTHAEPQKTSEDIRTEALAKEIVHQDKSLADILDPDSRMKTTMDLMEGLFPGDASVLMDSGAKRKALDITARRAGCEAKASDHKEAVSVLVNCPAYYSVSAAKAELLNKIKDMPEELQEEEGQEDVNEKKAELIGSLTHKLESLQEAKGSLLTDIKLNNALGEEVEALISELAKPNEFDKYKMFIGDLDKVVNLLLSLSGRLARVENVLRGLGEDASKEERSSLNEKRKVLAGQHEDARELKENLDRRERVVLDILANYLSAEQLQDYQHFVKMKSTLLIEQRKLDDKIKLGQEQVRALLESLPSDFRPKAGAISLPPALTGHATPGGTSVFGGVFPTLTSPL
Described as above. Conditions: both partners purified.

Test [3] concerns the target T6, GST-SD2 Cys254Ala (mouse Shroom3 aa 1,563–1,986, Cys1816Ala) (mouse, UniProt Q9QXN0 1563-1986, Cys254Ala (SD2 numbering; Cys 1816 in full length mouse Shroom3)).
T6 construct: Shroom3 SD2 domain, mouse, aa 1,563-1,986; Probably made in E. coli like the wild type; also called mutant GST-SD2; Cys254Ala SD2
T6 sequence (looked up): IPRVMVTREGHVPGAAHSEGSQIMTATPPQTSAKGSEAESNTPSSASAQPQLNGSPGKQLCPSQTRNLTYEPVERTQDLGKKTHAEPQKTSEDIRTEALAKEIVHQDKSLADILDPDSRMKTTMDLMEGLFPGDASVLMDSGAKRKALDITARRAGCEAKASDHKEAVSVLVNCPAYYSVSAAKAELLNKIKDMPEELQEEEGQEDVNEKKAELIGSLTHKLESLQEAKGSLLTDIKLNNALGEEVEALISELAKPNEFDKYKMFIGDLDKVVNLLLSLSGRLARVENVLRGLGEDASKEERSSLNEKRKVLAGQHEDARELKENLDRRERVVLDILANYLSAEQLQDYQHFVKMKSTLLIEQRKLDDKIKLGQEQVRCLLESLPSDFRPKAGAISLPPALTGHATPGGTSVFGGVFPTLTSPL
In words: pull-down; wild type or mutant GST-SD2 (5 μg) bound to glutathione agarose resin, incubated overnight with His-Sumo-R2-C1 (12.5 μg); washed 3× Triton IP buffer, 1× PBS; SDS-PAGE, Coomassie G-250. The conditions noted are these: both partners purified.

Test [4] concerns the target T7, GST-SD2 wild type (mouse Shroom3 aa 1,563–1,986) (mouse, UniProt Q9QXN0 1563-1986).
T7 construct: Shroom3 SD2 domain, mouse, aa 1,563-1,986; also called wild type GST-SD2; WT SD2
T7 sequence (looked up): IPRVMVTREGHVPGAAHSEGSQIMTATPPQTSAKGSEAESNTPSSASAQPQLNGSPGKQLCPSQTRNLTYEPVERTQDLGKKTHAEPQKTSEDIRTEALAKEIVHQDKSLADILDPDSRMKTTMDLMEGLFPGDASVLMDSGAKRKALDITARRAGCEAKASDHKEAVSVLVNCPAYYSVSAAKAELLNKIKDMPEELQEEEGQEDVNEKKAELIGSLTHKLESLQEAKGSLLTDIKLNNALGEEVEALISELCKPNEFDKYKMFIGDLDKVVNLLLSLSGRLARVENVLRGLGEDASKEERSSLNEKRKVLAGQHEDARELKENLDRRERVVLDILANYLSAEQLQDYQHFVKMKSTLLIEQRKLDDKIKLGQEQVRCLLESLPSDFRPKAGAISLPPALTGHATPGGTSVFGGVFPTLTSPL
The test is described as above. Conditions: both partners purified.

In test [5] the target is T2, Shroom3 SD2 domain (aa 1,563–1,986), …. The test is described as follows: ELISA; competition: SD2 immobilised; 100 ng Biotin-R2C1 incubated 1 h at 25°C with unlabeled R2C1 (1–10 µg); NeutrAvidin-HRP. Conditions: both partners purified.

On to `CC1(C)CC(=O)C2=C(C1)Nc1[nH]c(=S)[nH]c(=O)c1C2c1cccs1` (centres unmarked) [CCG-17444], for which, at Shroom3, the IC50 (as a rule, the concentration needed to halve the response being measured) worked out at 12.4 ± 2.3 µM.

B1: Biotinylated HisSUMO-R2C1 (mouse ROCK II aa 698–957) (domain or fragment, UniProt P70336 698-957, looked up)
chain: QQSLEQEEAEHKTTKARLADKNKIYESIEEAKSEAMKEMEKKLLEERSLKQKVENLLLEAEKRCSILDCDLKQSQQKLNELLKQKDVLNEDVRNLTLKIEQETQKRCLMQNDLKMQTQQVNTLKMSEKQIKQENNHLMEMKMNLEKQNTELRKERQDADGQMKELQDQLEAEQYFSTLYKTQVRELKEENEEKTKLCKELQQKKQDLQDERDSLAAQLEITLTKADSEQLARSIAEEQYSDLEKEKIMKELEIKEMMARH
modifications: biotin (NHS-PEO4-biotin; on average four biotin molecules per 1 mol of protein)
notes: No removal of the His-SUMO tag is described; also called Biotin-R2C1; biotinylated R2-C1; source: E. coli, purified (HisPur Ni-NTA), biotinylated with NHS-PEO4-biotin
As for B1, the Kd in test [1] came out at 0.0049 µM. For the same molecule, the binding result (with SD2 Cys379Ala (ELISA); with SD2 Cys254Ala (ELISA); in test [2]) was “binds” in each case.

B2: HisSUMO-R2C1 (mouse ROCK II aa 698–957), unlabeled (domain or fragment, UniProt P70336 698-957, looked up)
chain: QQSLEQEEAEHKTTKARLADKNKIYESIEEAKSEAMKEMEKKLLEERSLKQKVENLLLEAEKRCSILDCDLKQSQQKLNELLKQKDVLNEDVRNLTLKIEQETQKRCLMQNDLKMQTQQVNTLKMSEKQIKQENNHLMEMKMNLEKQNTELRKERQDADGQMKELQDQLEAEQYFSTLYKTQVRELKEENEEKTKLCKELQQKKQDLQDERDSLAAQLEITLTKADSEQLARSIAEEQYSDLEKEKIMKELEIKEMMARH
notes: also called Unlabeled R2-C1; unlabeled R2C1; source: E. coli, purified (HisPur Ni-NTA)
For B2, the binding result in test [3], in test [4] and in test [5] was “binds” each time.
